Data on one substance can be found in article PMC8555152.

This test addresses microtubule associated protein 1 light chain 3 (LC3), endogenous (human (endogenous in HEK293T)) (UniProt Q9GZQ8). The test is described as follows: co-IP.

“HIV-1 NL4-3 Gag (p55), expressed from the provirus (natural protein)” returned a reduction of the binding in SQSTM1-depleted cells relative to the control siRNA of 50%.
